Where two headings read alike, the source gives them in different places.

Experimental findings from patent US20220411472A1 (FRED HUTCHINSON CANCER CENTER, published 2022) are described below.

Assay [1] concerns the target Tir10 phosphotyrosyl peptide, FITC-Ahx-EHI-pY-DEVAAD.
Assay [2] concerns the target Biotinylated Tir-10_v2 peptide, Biotin-Ahx-EHI-pY-DEVAAD.
Assay [3] has the same target. The source holds these as a separate data set.
Assay [4] deals with T1, OX40 receptor on activated human CD8+ T-cells (human, UniProt P43489 29-277).
T1 construct: whole, on cells; also called CD134
T1 sequence (looked up): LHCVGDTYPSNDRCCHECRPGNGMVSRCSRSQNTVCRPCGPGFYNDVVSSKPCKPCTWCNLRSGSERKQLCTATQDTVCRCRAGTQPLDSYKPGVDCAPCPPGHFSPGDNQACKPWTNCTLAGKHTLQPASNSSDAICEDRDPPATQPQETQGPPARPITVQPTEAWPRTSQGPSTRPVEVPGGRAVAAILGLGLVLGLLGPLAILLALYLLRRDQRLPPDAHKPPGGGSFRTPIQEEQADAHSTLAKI
Kind of assay: flow cytometry, CD8+ T-cells 4 days after anti-CD3/anti-CD28 bead activation, 2 µg/mL construct, secondary anti-His iFluor647; axis APC: OX40; lower panel. (Flow cytometry measures light scatter and fluorescence of single cells or particles in a stream.)
Method: T-cell isolation, proliferation and activation assays. […] Cells were incubated for 30 min at 37° C. with cTRP24₆SS-scTrimer^OX40L (2 μg/mL) or cTRP24₆SS-scTrimer^4-1BBL (2 μg/mL) and subsequently stained at 4° C. using THE anti-His Ab (GenScript; #A00186).

Take “Free SH2 domain of the human Nck2 adapter protein”: in assay [1], the EC50 (read off the curve) came out at 400 nM. The values for the maximum binding response in assay [2] and in assay [3] were 10 RU and 125 RU, respectively. For the same molecule, in assay [2], the response worked out at 80 RU.

B1: cTRP246SS-scTrimer^OX40L (6-repeat disulfide-stapled cTRP tetramer with a single chain trimer of OX40L on each subunit) (ligand)
chain: QVSHRYPRIQSIKVQFTEYKKEKGFILTSQKEDEIMKVQNNSVIINCDGFYLISLKGYFSQEVNISLHYQKDEEPLFQLKKVRSVNSLMVASLTYKDKVYLNVTTDNTSLDDFHVNGGELILIHQNPGEFCVLGGGGSQVSHRYPRIQSIKVQFTEYKKEKGFILTSQKEDEIMKVQNNSVIINCDGFYLISLKGYFSQEVNISLHYQKDEEPLFQLKKVRSVNSLMVASLTYKDKVYLNVTTDNTSLDDFHVNGGELILIHQNPGEFCVLGGGGSQVSHRYPRIQSIKVQFTEYKKEKGFILTSQKEDEIMKVQNNSVIINCDGFYLISLKGYFSQEVNISLHYQKDEEPLFQLKKVRSVNSLMVASLTYKDKVYLNVTTDNTSLDDFHVNGGELILIHQNPGEFCVLGGGGSGGGGSCEAIKAAAELGKAGISSEEILELLRAAHELGLDPEAIKAAAELGKAGISSEEILELLRAAHELGLDPEAIKAAAELGKAGISSEEILELLRAAHELGLDPEAIKAAAELGKAGISSEEILELLRAAHELGLDPEAIKAAAELGKAGISSEEILELLRAAHELGLDPECIKAAAELGKAGISSEEILELLRAAHELGLGGSHHHHHH
notes: also called cTRP246SS-scTrimer^OX4OL; cTRP246SS-scFv^OX40L
Regarding B1, in assay [4], the binding result was “binds”.

In general, EC50 (read off the curve) refers to the concentration at which the effect is half-maximal.
